In general, stoichiometry N refers to a count of units in the complex or per binding partner.

One protein from publication PMC4081106 (Nucleic Acids Research, 2014) can be followed below.

The data set concerns the molecule itself. Description: SEC + SEC-MALS. Background: In gel filtration, larger molecules generally elute earlier.

B1: TtcA protein from Escherichia coli, N-terminal hexahistidine-tagged (6his-TtcA) (enzyme, E. coli, UniProt P76055 1-311, looked up)
chain: MQENQQITKKEQYNLNKLQKRLRRNVGEAIADFNMIEEGDRIMVCLSGGKDSYTMLEILRNLQQSAPINFSLVAVNLDQKQPGFPEHVLPEYLEKLGVEYKIVEENTYGIVKEKIPEGKTTCSLCSRLRRGILYRTATELGATKIALGHHRDDILQTLFLNMFYGGKMKGMPPKLMSDDGKHIVIRPLAYCREKDIQRFADAKAFPIIPCNLCGSQPNLQRQVIADMLRDWDKRYPGRIETMFSAMQNVVPSHLCDTNLFDFKGITHGSEVVNGGDLAFDREEIPLQPACWQPEEDENQLDELRLNVVEVK
B1: the “stoichiometry N” value is 2.
